One may read the IC50 as the concentration needed to halve the response being measured.

Where no end group is shown, it is not given here.

The test has as its target soluble I-A^b-3R, mouse MHC-II protein (recombinant I-A^b) (mouse). Description: fluorescence polarisation; competition: 100 nM I-A^b-3R (3R cut off by thrombin, 1 U/ug), 25 nM Alexa488-labeled CLIP probe peptide, test peptide from 100 uM in 5-fold dilutions, 0.5 uM HLA-DM, read after 72 h at 37 C; 100 mM sodium citrate, 50 mM NaCl, 0.1% octyl glucoside, 5 mM EDTA, 1 mM DTT; three independent experiments, mean and SD. In general terms: In fluorescence polarisation assays a small probe gives low polarisation when free and higher when bound to something large.
Take KDITTVNFPPALASGGG [… (Protein Igha peptide)]: the half-inhibitory concentration (IC50) worked out at 0.97 µM.

NDWTVDHPQTLFAWEG [… (B-cell receptor CD22 peptide)]: the IC50 came out at 0.445 µM.

With AGTGVDNVDLEAATR (not fully specified) [… (D-3-phosphoglycerate dehydrogenase peptide)], the IC50 turned out to be 57.5 µM. With AGKLQDQGPDVLLAKVS [… (Inter alpha-trypsin inhibitor, heavy chain 4 peptide)] the figure was 0.378 µM; with GGSTDYNAAFISRLS [… (Protein Ighv2-2 peptide)], 4.96 µM. With AVLLPKKSSATVGPKAPAVGK [… (Histone H2AX peptide)] the figure was 13.6 µM.

Consider YSMGMHTYQVG [… (Cathepsin S peptide)], for which the half-maximal inhibitory concentration (IC50) stood at 74.1 µM.

Take IRRYGVSQPDAVAAWK (not fully specified) [… (Alpha-N-acetylglucosaminidase peptide)]: the IC50 stood at 0.249 µM.

IYEAYRQGQANLEAL [… (Marginal zone B- and B1-cell-specific protein peptide)]: the IC50 is 1.37 µM.

Regarding QVLSWSSPVGSRTLA [… (Protein Siglecg peptide)], the IC50 was determined as 0.152 µM. Take APTSALGPKASPAPS [… (CCR4-NOT transcription complex subunit 3 peptide)]: the half-maximal inhibitory concentration (IC50) was determined as 2.3 µM. Next, AQRAGYKAAIVHNVDS [… (E3 ubiquitin-protein ligase RNF13 peptide)]: 2.42 µM; HLNTYDGSHTLRVSQS [… (T-lymphocyte surface antigen Ly-9 peptide)]: 1.36 µM; LNLPTGIPIVYEL (not fully specified) [… (Phosphoglycerate mutase 2 peptide)]: 54.4 µM. With GPGSREAASPVAITVQE [… (Fc receptor-like A peptide)] the figure was 0.467 µM; with LLPKYSFAKPSIVSDK [… (Complement receptor type 2 peptide)], 0.179 µM.

For the origin of these results see PMC8116589, “Distinguishing Signal From Noise in Immunopeptidome Studies of Limiting-Abundance Biological Samples: Peptides Presented by I-A^b in C57BL/6 Mouse Thymus” (Frontiers in Immunology, 2021).
